In article PMC8287938, “Identification and structural analysis of the Schizosaccharomyces pombe SMN complex” (Nucleic Acids Research, 2021):
Positions count from the first letter of the chain named. Names and notes keep the numbering of the source. Values joined by “and” are separate entries in the source; they are usually repeats but may differ in a detail not shown here. Identical values can stand only once.

Legend:
[1] = biological target: SpSMN/SpG2^ΔN80/SpG6/SpG7/SpG8^Δ35–58 complex (S. pombe) (UniProt Q09808); assay: SEC-SAXS; full length SpSMN complexes at various concentrations; molecular weight against the standard SpSMNΔ36–119S130D/SpG2ΔN80
HsG7^46–131 = biological target: T1, HsG7^46–131 (human, UniProt Q9H840 46-131); assay: crystal structure; HsG6 1–92/HsG7 46–131/HsG8 190–230, 1.52 Å, PDB 7BBL; conditions: both partners purified
T1 construct: human Gemin7, residues 46-131 (residues 47-131 in the model); also called human Gemin7 46-131; His6-HsG7^46–131; source: E. coli BL21(DE3), co-expressed with HsG6 1-92, purified
T1 sequence (looked up): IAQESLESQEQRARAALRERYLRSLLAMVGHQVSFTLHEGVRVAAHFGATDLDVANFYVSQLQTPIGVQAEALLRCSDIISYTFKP

[2] = biological target: the molecule itself; assay: SEC-SAXS; low concentrations (peak concentrations 5.8–16 μM); Superdex 200 10/300, 150 mM NaCl, 20 mM HEPES, 1 mM DTT, pH 7.5, 20°C
[3] = biological target: the molecule itself; assay: SEC; gel filtration chromatography of MBP-YG-domain 252–284 fusion proteins
[4] = biological target: the molecule itself; assay: SEC-SAXS; full length SpSMN complexes at various concentrations; molecular weight against the standard SpSMNΔ36–119S130D/SpG2ΔN80

“SpSMN/SpG2^ΔN80/SpG6/SpG7/SpG8^Δ35–58 complex (from UniProt Q09808 1-152; P0CU08 81-235)” was tested, and the stoichiometry N [1] was 4.

B1: HsG8^190–230 (domain or fragment, human, UniProt Q9NWZ8 190-230, looked up)
chain: TERPGERRQAEMKRLYGDSAAKIQAMEAAVQLSFDKHCDRK
notes: human Gemin8, residues 190-230 (also printed as 191-230; residues 191-227 in the model); also called HsG8^191–230; human Gemin8 C-terminus; source: E. coli BL21(DE3), purified (Glutathione Sepharose, PreScission); not shown: His6, N-terminal, cleaved; GST, N-terminal, cleaved
B1: binds (HsG7^46–131).

B2: SpSMN^Δ36–119S130D/SpG2^ΔN80 complex (complex, S. pombe)
chain 1: MDQSQKEVWDDSELRNAFETALHEFKKYHSIEAKGYDETYKKLIMDWYYAGYYTGLAEGLAKSEQRKD
chain 2: RKLEIEAGKKSFDPFLRYLLNIIDKEGERLEQYMESSSLDASILPKNLQQWRVYIEHKAPCWAILAVVDLATVLEILESLSSWLEKDAIDLQSQWIFCFCYKLPELLNGEDISTLRSVLKSLRSTHTSFPALQMSASALQAVLVYRYGQKDLFQT
notes: Gemin2 of Schizosaccharomyces pombe (SpG2) lacking the N-terminus (ΔN80); also called S130D mutant; source: E. coli BL21(DE3), co-expressed (SpSMNΔ36–119S130D/His6-SpG2ΔN80), purified (Ni-NTA, TEV, dialysis); not shown: His6, N-terminal, cleaved
In the case of B2, the “stoichiometry N” value [2] is reported as 2.

B3: SpSMN^Δ36–119A134E/SpG2^ΔN80 complex (complex, S. pombe)
chain 1: B2 chain 1 with D46S, A50E
chain 2: B2 chain 2
notes: Gemin2 of Schizosaccharomyces pombe (SpG2) lacking the N-terminus (ΔN80); also called A134E mutant; source: E. coli BL21(DE3), co-expressed (SpSMNΔ36–119A134E/His6-SpG2ΔN80), purified (Ni-NTA, TEV, dialysis); not shown: His6, N-terminal, cleaved
In the case of B3, the “stoichiometry N” value [2] is reported as 2.

B4: MBP-Hs-YG-domain^252–284 (wt) (domain or fragment, human, UniProt Q16637 252-284, looked up)
chain: DSLDDADALGSMLISWYMSGYHTGYYMGFRQNQ
notes: human SMN, YG-domain, residues 252-284; vector pETM-41; also called MBP fusion of human YG-box^252–284; wild-type construct; source: E. coli BL21(DE3), purified; immobilized on Amylose resin for the pull-down
B4: binds [3].

B5: MBP-Hs-YG-domain^252–284 H273R (domain or fragment, human, UniProt Q16637 252-284, looked up)
chain: B4 chain with H22R
notes: human SMN, YG-domain, residues 252-284, SMA-causing missense mutation H273R; source: E. coli BL21(DE3), purified; immobilized on Amylose resin for the pull-down
B5: binds [3].

B6: SpSMN/SpG2^ΔN80 complex (complex, S. pombe)
chain 1: MDQSQKEVWDDSELRNAFETALHEFKKYHSIEAKGGVSDPDSRLDGEKLISAARTEESISKLEEGEQMINQQTETTLEGDTHIQQFADNKGLSDEKPETRAAETHQEFMEVPPPIRGLTYDETYKKLIMSWYYAGYYTGLAEGLAKSEQRKD
chain 2: B2 chain 2
notes: SMN of Schizosaccharomyces pombe (SpSMN); Gemin2 of Schizosaccharomyces pombe (SpG2) lacking the N-terminus (ΔN80); source: E. coli BL21(DE3), co-expressed (SpSMN/His6-SpG2ΔN80), purified (Ni-NTA, TEV, dialysis); not shown: His6, N-terminal, cleaved
With B6 the “stoichiometry N” value [4] was 6 and 8.
